In assay [1] the target is T1, t-SNAREs: heterodimeric complex of syntaxin-1 and SNAP-25, membrane-integrated in liposomes (UniProt P32851 1-288; P60881 1-206). The experiment in a line: co-sedimentation.
The target of assay [2] is T1, t-SNAREs: heterodimeric complex of …. The experiment in a line: co-sedimentation. This is another data set of the same source.

This note sets out measurements from article PMC3148490 (Cell metabolism, 2011).

T1 sequence (P32851 whole entry, chain 1 of 2): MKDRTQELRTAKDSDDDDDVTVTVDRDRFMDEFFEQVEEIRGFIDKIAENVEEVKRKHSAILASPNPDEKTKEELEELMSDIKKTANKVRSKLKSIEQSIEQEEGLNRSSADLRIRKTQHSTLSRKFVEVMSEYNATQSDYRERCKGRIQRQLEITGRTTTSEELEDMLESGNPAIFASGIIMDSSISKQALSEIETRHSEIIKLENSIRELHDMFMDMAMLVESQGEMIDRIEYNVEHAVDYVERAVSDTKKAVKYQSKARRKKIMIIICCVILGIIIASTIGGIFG
T1 sequence (P60881 whole entry, chain 2 of 2): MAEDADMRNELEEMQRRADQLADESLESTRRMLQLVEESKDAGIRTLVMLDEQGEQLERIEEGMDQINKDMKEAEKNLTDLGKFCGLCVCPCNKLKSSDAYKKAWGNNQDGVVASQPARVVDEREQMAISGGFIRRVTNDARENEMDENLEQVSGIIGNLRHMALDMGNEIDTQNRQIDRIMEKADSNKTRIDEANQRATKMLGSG

B1: MBP-DAMH (MBP fusion protein of the CAPS DAMH domain) (domain or fragment, UniProt Q62717 859-1073, looked up)
chain: ENVGRLITPAKKLEDTIRLAELVIEVLQQNEEHHAEAFAWWSDLMVEHAETFLSLFAVDMDAALEVQPPDTWDSFPLFQLLNDFLRTDYNLCNGKFHKHLQDLFAPLVVRYVDLMESSIAQSIHRGFERESWEPVNNGSGTSEDLFWKLDALQTFIRDLHWPEEEFGKHLEQRLKLMASDMIESCVKRTRIAFEVKLQKTSRSTDFRVPQSICTM
For orientation: Kd means the concentration at which binding is half-saturated. B1: in assay [1], the Kd was 0.177 µM.

B2: GST-DAMH (GST fusion protein of CAPS(859-1073), the DAMH domain) (domain or fragment, UniProt Q62717 859-1073, looked up)
chain: B1 chain
As to B2, the “fold binding against syntaxin-1 or SNAP-25 alone” value in assay [2] came to 2 fold.
